Assays:
[1] = molecular target: SARS-CoV-2 or SARS-CoV stem helix peptide (SARS-CoV-2; region stated to be …, biotin); experiment: BLI; conditions: both partners purified
[2] = molecular target: T1, prefusion-stabilized HKU1 S ectodomain trimer (Human coronavirus HKU1, isolate not …, UniProt Q5MQD0, stabilised); experiment: ELISA; conditions: both partners purified
[3] = molecular target: prefusion-stabilized OC43 S ectodomain trimer (Human coronavirus OC43, isolate not …, UniProt P36334, stabilised); experiment: cell-based or functional assay
[4] = molecular target: T1, prefusion-stabilized HKU1 S ectodomain …; experiment: SPR; S2P6 Fab fragment and S glycoproteins (fig. S1, G and H); conditions: both partners purified

| Binder | binding result [1] | binding result [2] | neutralization of VSV pseudotyped with OC43 S, IC50 [3] [µg/mL] | Kd [4] [nM] |
| --- | --- | --- | --- | --- |
| S2P6 monoclonal antibody (antibody, V domains shown, also called S2P6 mAb; S2P6 IgG; copies: 2 + 2) VH: EVQLVQSGAEVKKPGASVKVSCKASGYTFTSQYMHWVRQAPGQGLEWIGIINPSGVHTSYAQKFQGRVTLTRDTSTSTLYMELSSLRSEDTAVYYCARGSPKGAFDYWGQGTLVTVSS VL: not shown | binds | binds | 1.3 | – |
| S2P6 Fab fragment (Fab, V domains shown) VH: EVQLVQSGAEVKKPGASVKVSCKASGYTFTSQYMHWVRQAPGQGLEWIGIINPSGVHTSYAQKFQGRVTLTRDTSTSTLYMELSSLRSEDTAVYYCARGSPKGAFDYWGQGTLVTVSS VL: not shown | – | – | – | ~120 |

— publication PMC9268357 (Science (New York, N.y.), 2021)
